The numbers were not newly measured in PMC11939966, which cites them from elsewhere.

The target in the data set is Tristetraprolin (TTP) (Homo sapiens) (UniProt P26651). Description: ITC. (ITC needs no label: the signal is the heat of the interaction.)
Chain of UniProt P26651 (P26651 whole entry): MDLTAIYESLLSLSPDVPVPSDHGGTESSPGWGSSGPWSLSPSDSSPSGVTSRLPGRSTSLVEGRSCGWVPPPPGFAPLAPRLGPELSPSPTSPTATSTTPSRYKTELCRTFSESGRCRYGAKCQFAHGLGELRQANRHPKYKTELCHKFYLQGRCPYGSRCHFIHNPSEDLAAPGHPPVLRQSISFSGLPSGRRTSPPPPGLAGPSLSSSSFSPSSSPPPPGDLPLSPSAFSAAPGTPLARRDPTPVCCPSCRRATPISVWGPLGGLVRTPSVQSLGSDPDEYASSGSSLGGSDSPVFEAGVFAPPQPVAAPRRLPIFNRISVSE

The Kd is the free concentration of one partner at which half of the binding sites on the other are occupied at equilibrium, for simple one-to-one binding. For the substance CNOT1 800-999 (from UniProt A5YKK6), the Kd is 2 µM.
